Measured values as given in paper PMC10792529 (Proteins, 2023).
Where “and” joins values, the source holds several entries; their conditions need not be identical. Identical values can stand only once.

B4: human SUN1 SUN domain (domain or fragment)
chain: GITEAQARAIVNSALKLYSQDKTGMVDFALESGGGSILSTRCSETYETKTALMSLFGIPLWYFSQSPRVVIQPDIYPGNCWAFKGSQGYLVVRLSMMIHPAAFTLEHIPKTLSPTGNISSAPKDFAVYGLENEYQEEGQLLGQFTYDQDGESLQMFQALKRPDDTAFQIVELRIFSNWGHPEYTCLYRFRVHGEPVK

What was measured:
[1] = biological target: HucM, scaffold subunit of the [NiFe]-hydrogenase Huc (Mycobacterium smegmatis); assay: cryo-EM structure; 833 kDa Huc complex: 8 HucL, 8 HucS, 4 HucM
[2] = biological target: HucSL heterodimer (Mycobacterium smegmatis); assay: as above
[3] = biological target: Mycobacterium smegmatis MceG (Mycobacterium smegmatis); assay: cryo-EM structure
[4] = biological target: cytosolic domain of the major export gate protein YscV (Yersinia enterocolitica); assay: crystal structure; 9:9:9 YscV:YscX:YscY complex, 4.1 Å, 18 copies of the 1:1:1 complex in the asymmetric unit
[5] = biological target: nudivirus polyhedrin (occlusion body protein of Tipula oleracea nudivirus) (Tipula oleracea nudivirus); assay: crystal structure
[6] = biological target: tyrosine O-methyltransferase MfnG from Streptomyces drozdowiczii (Streptomyces drozdowiczii); assay: crystal structure; MfnG with SAH and soaked L-Tyr; five crystal forms with one to four dimers per asymmetric unit
[7] = biological target: T1, E. coli outer-membrane transporter FhuA (E. coli, UniProt P06971 34-747); assay: cryo-EM structure; conditions: both partners purified
T1 sequence (looked up): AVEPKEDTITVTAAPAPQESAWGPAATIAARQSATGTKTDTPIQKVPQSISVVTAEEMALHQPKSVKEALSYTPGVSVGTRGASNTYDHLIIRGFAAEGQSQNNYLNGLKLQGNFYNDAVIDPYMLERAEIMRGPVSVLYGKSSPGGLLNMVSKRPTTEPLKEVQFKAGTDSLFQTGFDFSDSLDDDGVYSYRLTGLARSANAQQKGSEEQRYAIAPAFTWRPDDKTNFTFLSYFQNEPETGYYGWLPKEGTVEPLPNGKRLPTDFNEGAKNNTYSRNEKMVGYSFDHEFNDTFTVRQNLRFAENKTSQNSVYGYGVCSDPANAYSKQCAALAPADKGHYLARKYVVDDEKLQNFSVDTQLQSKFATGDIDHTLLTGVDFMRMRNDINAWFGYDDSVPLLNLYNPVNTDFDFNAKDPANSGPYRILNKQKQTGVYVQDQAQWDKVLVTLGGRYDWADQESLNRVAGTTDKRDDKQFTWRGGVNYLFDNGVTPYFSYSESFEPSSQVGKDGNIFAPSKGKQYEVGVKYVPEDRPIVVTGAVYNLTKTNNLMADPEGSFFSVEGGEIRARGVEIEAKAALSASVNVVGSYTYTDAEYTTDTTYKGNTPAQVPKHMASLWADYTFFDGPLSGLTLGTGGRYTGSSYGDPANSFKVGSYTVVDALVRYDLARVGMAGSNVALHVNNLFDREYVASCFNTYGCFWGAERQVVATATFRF

human SUN1 SUN domain = biological target: B4; assay: crystal structure; SUN1-KASH6 complex, nine SUN domains and six KASH peptides; conditions: both partners purified
[8] = biological target: phosphodiesterase domain of 2',3'-cyclic nucleotide 3'-phosphodiesterase (CNPase) (Mus musculus (assumed; species not …, UniProt P16330); assay: crystal structure; nanobodies co-crystallized with the phosphodiesterase domain of CNPase; conditions: both partners purified
[9] = biological target: the molecule itself; assay: crystal structure; SUN1-KASH6 complex, nine SUN domains and six KASH peptides

Sequence of phosphodiesterase domain of 2',3'-cyclic nucleotide 3'-phosphodiesterase (CNPase) (Mus musculus (P16330 whole entry, looked up, the tested form may be a part): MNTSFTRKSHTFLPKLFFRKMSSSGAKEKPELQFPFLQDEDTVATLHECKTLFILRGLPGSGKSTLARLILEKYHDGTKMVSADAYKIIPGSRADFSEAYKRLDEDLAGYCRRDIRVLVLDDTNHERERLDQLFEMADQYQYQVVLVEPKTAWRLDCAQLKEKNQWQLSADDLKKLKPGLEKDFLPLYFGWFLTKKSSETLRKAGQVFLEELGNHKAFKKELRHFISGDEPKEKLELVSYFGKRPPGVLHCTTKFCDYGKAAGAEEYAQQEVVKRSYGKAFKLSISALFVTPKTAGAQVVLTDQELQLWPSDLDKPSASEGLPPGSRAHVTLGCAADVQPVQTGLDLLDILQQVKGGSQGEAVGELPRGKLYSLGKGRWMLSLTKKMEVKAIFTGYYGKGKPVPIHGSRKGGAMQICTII

Molecule: HucM, scaffold subunit of the [NiFe]-hydrogenase Huc (natural protein)
- stoichiometry N [1]: 4

Molecule: HucSL heterodimer (complex)
- stoichiometry N [2]: 2

Molecule: Mycobacterium smegmatis MceG (enzyme)
- stoichiometry N [3]: 2

Molecule: YscX:YscY heterodimer (complex)
- stoichiometry N (YscX:YscY complexes per YscV nonamer) [4]: 9

Molecule: cytosolic domain of the major export gate protein YscV (domain or fragment)
- stoichiometry N [4]: 9

Molecule: nudivirus polyhedrin (occlusion body protein of Tipula oleracea nudivirus) (natural protein)
- stoichiometry N [5]: 2

Molecule: tyrosine O-methyltransferase MfnG from Streptomyces drozdowiczii (enzyme)
- stoichiometry N [6]: 2

B1: Bacteriophage T5 Receptor Binding Protein RBPpb5 (natural protein)
chain: MSFFAGKLNNKSILSLRRGSGGDTNQHINPDSQTIFHSDMSHVIITETHSTGLRLDQGAGDYYWSEMPSRVTQLHNNDPNRVVLTEIEFSDGSRHMLSGMSMGVGAKAYGIINPQIMSQGGLKTQITASADLSLDVGYFNTGTSGTIPQKLRDGTGCQHMFGAFSGRRGFASSAMYLGGAALYKSAWSGSGYVVADAGTLTIPSDYVRHPGARNFGFNAIYVRGRSCNRVLYGMEGPNYTTGGAVQGASSSGALNFTYNPSNPESPKYSVGFARADPTNYAYWESMGDPNDSANGPIGIYSEHLGIYPSKITWYVTNLVYNGSGYNIDGGLFNGNDIKLSPREFIIKGVNVNNTSWKFINFIEKNFNVGNRADFRDVGCNLSKDSPSTGISGIATFGLPTTESNNAPSIKGGNVGGLHANVVSIYNFLPSASWYVSSNPPKIGNNYGDVWSENLLPLRLLGGSGSTILSGNIVFQGNGSVHVGTVGLDLNSSRNGAIVCTMEFIDDTWLSAGGIGCFNPTEMLSQGAEYGDSRFRIGGNTINKKLHQILSLPAGEYVPFFTIKGTVVNACKLQAAAYNPTPYWVSGLPGSVGQTGYYTLTYYMRNDGNNNISIWLDSSMSNIIGMKACLPNIKLIIQRLT
- binding result [7]: binds

B2: KASH6 peptide, the KASH domain of JAW1/LRMP (peptide)
peptide: TGQLFQKSVDAAPTQQEDSWTSLEHILWPFTRLRHNGPPPV
- stoichiometry N (human SUN1 SUN domain): 2 KASH6 peptides per SUN1 trimer

B3: nanobody 8C (VHH)
VHH: EVQLEESGGGLVQAGGSLTLSCAASGFTFDDYAMGWYRQAPGKERVGVSCISRTDGYTYYLDSVKGRFTISTDHAKHTVYLQMNNLKPDDTGLYYCAADADPEYGSRCPDPYYGMDYWGKGILVTVSS
- binding result [8]: binds

Molecule: B4
- stoichiometry N [9]: 3 and 9
